As usually defined, the Kd is the constant that tells how readily two partners part at equilibrium. A low value points to a tighter complex.

To fix the notation:
B1: AB-3467, expressed as human IgG1 (antibody, V domains shown)
VH: QVQLQESGPGLVKPSETLSLTCTVSGGSISSYHWNWIRQPPGKGLEWIGYIYYSGNTNYNPSLKSRVSISTDTSKNQFSLKLSSVTAADTAVYYCVREMRRGYSGYDYWDLYAFDIWGQGTMVTVSS
VL: DIQLTQSPSFLSASVGDRVTITCRASQGISSYLAWYQQKPGKAPNLLIYAASTLQSGVPSRFSGSGSGTEFTLTISSLQPEDFATYYCQQLNSYPHTFGQGTKLEIK
B2: AB-3623, expressed as human IgG1 (antibody, V domains shown)
VH: B1 VH with T23A, H33Y, K43T, N56R, S68T, T71V, V96A, Y108D
VL: B1 VL with A13T, V15I
B3: AB-4873, expressed as human IgG1 (antibody, V domains shown)
VH: QVQLVQSGAEVKKPGASVKVSCKASGYTFTSYYMHWVRQAPGQGLEWMGIINPSAGTTNYAQKFQGRVTMTRDTSTSTVYMELSSLRPEDTAVYYCARENYYGWGSYPFDYWGQGTLVTVSS
VL: B1 VL with I2V, N45K, S65T, H96Y
B4: AB-4689, expressed as human IgG1 (antibody, V domains shown)
VH: QVQLVQSGAEVKKPGASVKVSCKASGYTFSSYGISWVRQAPGQGLEWMGWISAYNGNTYYAQKLQGRVTMTTDTSTSTAYMELRSLRSDDTAVYYCAREFGRLIVHFDYWGQGTLVTVSS
VL: EIVLTQSPDFQSVTPKEKVTITCRASQSIGSSLSWYQQKPDQSPKLLIKCASQSISGVPSRFSGSGSGTDFTLTINSLEAEDAAAYYCHQSSSLPYTFGQGTKLEIK
B5: AB-2445, expressed as human IgG1 (antibody, V domains shown)
VH: QVQLVESGGGVVQPGRSLRLSCAASGFTFSSYGMHWVRQAPGKGLEWVAVIWYDGSNKYYADSVKGRFTISRDNSKNTLYLQMNSLRAEDTAVYYCARDDYYGSGSYDYYGMDVWGQGTTVTVSS
VL: DIQMTQSPSSLSASVGDRITITCRASQGIRNDLDWYQQKPGKAPKRLIYAASSLQSGVPSRFSGSGSGTEFTLTISSLQPEDFATYYCLQHNSYPPYTFGQGTKLEIK
B6: AB-2126, expressed as human IgG1 (antibody, V domains shown)
VH: QVQLVESGGGVVQPGRSLRLSCAASGFTFSSYGIHWVRQAPGKGLEWVAVIWYDGSNKYYADSVKGRFTISRDNSKNTLYLQMNSLRAEDTAVYYCARETLDGMDVWGQGTTVTVSS
VL: NIQMTQSPSAMSASVGDRVTITCRARQGISNYLAWFQQKPGKVPKHLIYAASSLLSGVPSRFSGSGSGTEFTLTIRSLQPEDFATYYCLQHNSYPYTFGQGTKLEIK

Substitutions are numbered along the chain they refer to.

The target of one experiment is T1, SARS-CoV-2 receptor-binding domain (SARS-CoV-2, UniProt P0DTC2). The experiment is described as follows: BLI. For orientation: BLI is a label-free optical method that tracks binding on a fibre tip over time.
On to B1, for which binding was put at a Kd of 4.1 nM.
Same read-out and setting: as for B2, the figure is 2.3 nM; as for B3, 4.1 nM.
Still for that read-out and setting: next, B4: 0.24 nM.

For the next experiment, the target named is T1, SARS-CoV-2 receptor-binding domain. The experiment is described as follows: cell-based or functional assay.
Regarding B5, the “neutralization of live CoV2 virus, Vero E6 cells (blocks RBD-ACE2)” value was 0.37 µg/mL.
The same measure, in the same setting: next, B6: 0.106 µg/mL.
Same read-out and setting: next, B1: 0.179 µg/mL.

The values above are taken from PMC8554075 (Immunity, 2021).
